Measured values: patent US20170306033A1 (Amgen, published 2017)
Numbering of substitutions follows the chain as printed.

T1: human PAC1 receptor (human, UniProt P41586 21-468)
T1 sequence: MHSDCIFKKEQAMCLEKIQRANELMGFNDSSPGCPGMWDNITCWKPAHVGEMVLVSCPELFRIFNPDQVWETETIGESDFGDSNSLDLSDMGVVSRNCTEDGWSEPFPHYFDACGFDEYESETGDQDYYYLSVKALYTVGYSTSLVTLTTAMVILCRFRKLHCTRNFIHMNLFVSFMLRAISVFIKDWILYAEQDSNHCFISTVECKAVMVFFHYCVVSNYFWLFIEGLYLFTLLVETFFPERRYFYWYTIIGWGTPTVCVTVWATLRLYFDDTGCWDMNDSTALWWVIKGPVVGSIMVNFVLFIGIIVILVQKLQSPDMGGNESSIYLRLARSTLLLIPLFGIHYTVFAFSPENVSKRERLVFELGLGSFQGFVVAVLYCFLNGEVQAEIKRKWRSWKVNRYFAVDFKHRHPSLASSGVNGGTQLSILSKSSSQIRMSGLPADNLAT

B1: iPS:328000 (bispecific antibody, human IgG2, kappa, lambda)
light 1: not shown
heavy 1: QVQLQESGPGLVKPSQTLSLTCTVSGGSISSGGYYWSWIRQHPGKGLEWIGYIYYSGNTYYNPSLKSRVTISGDTSKNQFSLKLRSVTAADTAVYYCTRGGAARGMDVWGQGTTVTVSSASTKGPSVFPLAPCSRSTSESTAALGCLVKDYFPEPVTVSWNSGALTSGVHTFPAVLQSSGLYSLKSVVTVPSSNFGTQTYTCNVDHKPSNTKVDKTVERKCCVECPPCPAPPVAGPSVFLFPPKPKDTLMISRTPEVTCVVVDVSHEDPEVQFNWYVDGVEVHNAKTKPREEQFNSTFRVVSVLTVVHQDWLNGKEYKCKVSNKGLPAPIEKTISKTKGQPREPQVYTLPPSREEMTKNQVSLTCLVDGFYPSDIAVEWESNGQPENNYDTTPPMLDSDGSFFLYSDLTVDKSRWQQGNVFSCSVMHEALHNHYTQKSLSLSPGK
light 2: QSVLTQPPSVSAAPGQKVTISCSGSSSNIGNNYVSWYQQLPGTAPKLLIYDNNKRPSGIPDRFSGSKSGTSTTLGITGLQTGDEADYYCGTWDSRLSAVVFGGGTKLTVLGQPKANPTVTLFPPSSEELQANKATLVCLISDFYPGAVTVAWKADGSPVKAGVETTKPSKQSNNKYAAKSYLSLTPEQWKSHRSYSCQVTHEGSTVEKTVAPTECS
heavy 2: QVQLVESGGGVVQPGRSLRLSCAASGFTFSSFGMHWVRQAPGKGLEWVAVISFDGSIKYSVDSVKGRFTISRDNSKNTLFLQMNSLRAEDTAVYYCARDRLNYYDSSGYYHYKYYGMAVWGQGTTVTVSSASTKGPSVFPLAPCSRSTSESTAALGCLVKDYFPEPVTVSWNSGALTSGVHTFPAVLQSSGLYSLESVVTVPSSNFGTQTYTCNVDHKPSNTKVDKTVERKCCVECPPCPAPPVAGPSVFLFPPKPKDTLMISRTPEVTCVVVDVSHEDPEVQFNWYVDGVEVHNAKTKPREEQFNSTFRVVSVLTVVHQDWLNGKEYKCKVSNKGLPAPIEKTISKTKGQPREPQVYTLPPSRKKMTKNQVSLTCLVKGFYPSDIAVEWESNGQPENNYKTTPPMLKSDGSFFLYSKLTVDKSRWQQGNVFSCSVMHEALHNHYTQKSLSLSPGK
B2: iPS:327288 (bispecific antibody, human IgG1, kappa, lambda, N297G)
light 1: not shown
heavy 1: not shown
light 2: B1 light 2
heavy 2: QVQLVESGGGVVQPGRSLRLSCAASGFTFSSFGMHWVRQAPGKGLEWVAVISFDGSIKYSVDSVKGRFTISRDNSKNTLFLQMNSLRAEDTAVYYCARDRLNYYDSSGYYHYKYYGMAVWGQGTTVTVSSASTKGPSVFPLAPSSKSTSGGTAALGCLVKDYFPEPVTVSWNSGALTSGVHTFPAVLQSSGLYSLESVVTVPSSSLGTQTYICNVNHKPSNTKVDKKVEPKSCDKTHTCPPCPAPELLGGPSVFLFPPKPKDTLMISRTPEVTCVVVDVSHEDPEVKFNWYVDGVEVHNAKTKPCEEQYGSTYRCVSVLTVLHQDWLNGKEYKCKVSNKALPAPIEKTISKAKGQPREPQVYTLPPSRKKMTKNQVSLTCLVKGFYPSDIAVEWESNGQPENNYKTTPPVLKSDGSFFLYSKLTVDKSRWQQGNVFSCSVMHEALHNHYTQKSLSLSPGK
B3: iPS:327280 (bispecific antibody, human IgG1, kappa, lambda, N297G)
light 1: not shown
heavy 1: not shown
light 2: B1 light 2
heavy 2: B2 heavy 2 with K370E
B4: iPS:327290 (bispecific antibody, human IgG1, kappa, lambda, N297G)
light 1: DIQLTQSPSFLSASVGDRVTITCRASQSIGRSLHWYQQKPGKAPKLLIKYASQSLSGVPSRFSGSGSGTEFTLTISSLQPEDFATYYCHQSSRLPFTFGPGTKVDIKRTVAAPSVFIFPPSDEQLKSGTASVVCLLNNFYPREAKVQWKVDNALQSGNSQESVTEQDSKDSTYSLESTLTLSKADYEKHKVYACEVTHQGLSSPVTKSFNRGEC
heavy 1: not shown
light 2: B1 light 2
heavy 2: B2 heavy 2
B5: iPS:327286 (bispecific antibody, human IgG1, kappa, lambda, N297G)
light 1: B4 light 1 with P100E
heavy 1: not shown
light 2: B1 light 2 with G103K
heavy 2: B2 heavy 2 with G44E, K370E
B6: iPS:327289 (bispecific antibody, human IgG1, kappa, lambda, N297G)
light 1: not shown
heavy 1: not shown
light 2: B1 light 2
heavy 2: B2 heavy 2
B7: iPS:327281 (bispecific antibody, human IgG1, kappa, lambda, N297G)
light 1: not shown
heavy 1: not shown
light 2: B1 light 2
heavy 2: B2 heavy 2 with K370E
B8: iPS:327287 (bispecific antibody, human IgG1, kappa, lambda, N297G)
light 1: EIVLTQSPATLSLSPGERATLSCRASQSVGRSLHWYQQKPGQAPRLLIKYASQSLSGIPARFSGSGSGTDFTLTISSLEPEDFAVYYCHQSSRLPFTFGEGTKVDIKRTVAAPSVFIFPPSDEQLKSGTASVVCLLNNFYPREAKVQWKVDNALQSGNSQESVTEQDSKDSTYSLESTLTLSKADYEKHKVYACEVTHQGLSSPVTKSFNRGEC
heavy 1: not shown
light 2: B1 light 2 with G103K
heavy 2: B2 heavy 2 with G44E, K370E
B9: iPS:327285 (bispecific antibody, human IgG1, kappa, lambda, N297G)
light 1: not shown
heavy 1: not shown
light 2: B1 light 2 with G103K
heavy 2: B2 heavy 2 with G44E, K370E
B10: iPS:327679 (bispecific antibody, human IgG1, kappa, N297G)
light 1: B4 light 1
heavy 1: not shown
light 2: EIVLTQSPGTLSLSPGERATLSCRASQSVSSGYLTWYQQKPGQAPRLLIYGASSRATGIPDRFSGSGSGTDFTLTISRLEPEDFAVYYCQQYGNSLSRFGQGTKLEIKRTVAAPSVFIFPPSDEQLKSGTASVVCLLNNFYPREAKVQWKVDNALQSGNSQESVTEQDSKDSTYSLKSTLTLSKADYEKHKVYACEVTHQGLSSPVTKSFNRGEC
heavy 2: not shown
B11: iPS:327680 (bispecific antibody, human IgG1, kappa, N297G)
light 1: B8 light 1 with E100P
heavy 1: not shown
light 2: B10 light 2
heavy 2: not shown

Key:
human CGRP receptor = human CGRP receptor (human, UniProt Q16602 23-461; O60894 27-148); test: cell-based or functional assay
human CGRP receptor, sequence (Q16602 23-461 limits assumed, chain 1 of 2): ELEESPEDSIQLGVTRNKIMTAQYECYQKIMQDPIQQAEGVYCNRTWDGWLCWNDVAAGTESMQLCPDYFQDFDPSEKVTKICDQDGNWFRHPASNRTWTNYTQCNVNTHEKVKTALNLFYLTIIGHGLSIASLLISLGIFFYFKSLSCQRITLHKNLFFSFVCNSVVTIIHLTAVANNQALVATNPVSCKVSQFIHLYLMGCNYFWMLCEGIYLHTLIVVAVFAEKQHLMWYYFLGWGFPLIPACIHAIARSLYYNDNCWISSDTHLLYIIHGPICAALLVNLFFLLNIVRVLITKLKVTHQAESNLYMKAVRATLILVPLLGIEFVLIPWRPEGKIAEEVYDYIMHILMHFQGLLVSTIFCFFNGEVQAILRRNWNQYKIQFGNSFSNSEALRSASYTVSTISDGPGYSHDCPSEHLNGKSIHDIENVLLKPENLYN
human CGRP receptor, sequence (O60894 27-148 limits assumed, chain 2 of 2): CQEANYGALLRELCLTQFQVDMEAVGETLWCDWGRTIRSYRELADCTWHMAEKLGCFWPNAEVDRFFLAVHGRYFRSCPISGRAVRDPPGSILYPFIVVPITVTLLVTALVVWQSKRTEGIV

human PAC1 receptor = molecular target: T1, human PAC1 receptor; test: cell-based or functional assay

Row | Binder | % inhibition of human CGRPR (human CGRP receptor) [%] | % inhibition of human PAC1 (human PAC1 receptor) [%]
1 | B1 | 75 | 63
2 | B2 | 67 | 88
3 | B3 | 80 | 83
4 | B4 | 70 | 60
5 | B5 | 85 | 23
6 | B6 | 72 | 75
7 | B7 | 82 | 50
8 | B8 | 86 | 71
9 | B9 | 84 | 9
10 | B10 | 86 | 23
11 | B11 | 88 | 92
